No end group written: not given here.

Consider 1 molecule from US20200158726A1 (NORDIC BIOSCIENCE A S, published 2020).

One assay deals with T1, collagen type X alpha 1 (human, UniProt Q03692 19-680).
T1 construct: Endogenous protein in U2-OS lysates, seen as bands of about 59 kDa (monomer), 76 kDa and 120 kDa (dimer); also called type X collagen; Col10
Nature of the assay: Western blot of U2-OS cell lysate, antibody at 1 ug/ml. On the procedure:
Human osteosarcoma cell lines (U2-OS; collagen X producing cell line) were purchased from ATCC (USA) and cultivated in DMEM medium containing 10% FBS, 2 mM L-Glutamine, 100 units/ml penicillin and 100 ug/ml streptomycin. Cells were grown in T25 flasks in a 37° C. incubator at 5% CO2, changing the medium every two or three days. When the cells reached 90% confluency the cell lysates were prepared using RIPA lysis buffer with following procedure: the cell media was removed and the cells washed twice with PBS, followed by adding cold RIPA lysis buffer (25 mM Tris-HCl pH7, 6; 150 mM NaCl, 1% Sodium deoxycholate acid). An EDTA free cocktail tablet was added to the flask then RIPA buffer was distributed to cover the whole surface of flask and incubated on ice for 10 minutes. The cells were scraped and centrifuged at 10,000 RPM at 4° C. for 10 minutes and the supernatants stored at −20° C. until use.
Protein bands were blotted onto a nitrocellulose membrane using the Invitrogen i-Blot gel transfer system according to manufacturer's instruction. The membrane was blocked in blocking buffer (5% skimmed milk in Tris-buffered saline with Tween (TBST)) overnight at 4° C. The monoclonal antibody, NB509-11G8 and commercial collagen type X antibody X53 (for comparison purposes) were applied in a concentration of 1 μg/ml in TBST with 5% skim milk powder and shaken overnight at 4° C. […]
On the technique in general: A western blot detects proteins with antibodies after separation by electrophoresis.

The target in assay [1] is T2, deselection peptide DMDYLPRVPNQ
T2 construct: Synthetic peptide
T2 peptide: DMDYLPRVPNQ
Nature of the assay: competitive peptide assay against the biotinylated screening peptide.

In assay [2] the target is T3, truncated peptide SFSGFLVA
T3 construct: Synthetic peptide; the selection peptide without its two C-terminal residues PM
T3 peptide: SFSGFLVA
The description is as above.

Assay [3] concerns the target T4, selection peptide SFSGFLVAPM-COOH (human).
T4 construct: Synthetic peptide; also called calibrator peptide
T4 peptide: SFSGFLVAPM-OH
The experiment in a line: competitive peptide assay (preliminary assays); the peptide also blocked the Western blot bands.

T1 sequence (Q03692 19-680): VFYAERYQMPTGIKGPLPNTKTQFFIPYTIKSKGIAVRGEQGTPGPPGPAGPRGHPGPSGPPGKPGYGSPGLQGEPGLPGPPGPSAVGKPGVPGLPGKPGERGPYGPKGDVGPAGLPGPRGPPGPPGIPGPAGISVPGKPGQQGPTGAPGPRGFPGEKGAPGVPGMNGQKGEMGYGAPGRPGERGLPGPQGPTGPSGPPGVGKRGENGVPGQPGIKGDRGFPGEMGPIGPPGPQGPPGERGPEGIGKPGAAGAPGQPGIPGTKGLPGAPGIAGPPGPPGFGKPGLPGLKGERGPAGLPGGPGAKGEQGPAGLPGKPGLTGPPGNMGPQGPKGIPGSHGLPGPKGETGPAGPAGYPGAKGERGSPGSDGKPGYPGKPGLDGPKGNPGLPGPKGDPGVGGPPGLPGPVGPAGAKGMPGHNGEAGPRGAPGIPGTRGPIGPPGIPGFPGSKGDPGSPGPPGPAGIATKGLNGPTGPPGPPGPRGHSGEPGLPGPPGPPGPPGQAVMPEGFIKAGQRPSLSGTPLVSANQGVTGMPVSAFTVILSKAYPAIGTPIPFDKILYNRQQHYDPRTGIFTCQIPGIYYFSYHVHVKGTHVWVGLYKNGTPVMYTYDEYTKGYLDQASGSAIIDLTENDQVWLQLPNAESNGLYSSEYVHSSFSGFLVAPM

B1: monoclonal antibody NB509-11G8 (antibody, mouse IgG1, kappa, V domains shown)
VH: EVQLQQSGAELVKPGASVKLSCTASGFNIKDTHMHWVKQRPEQGLEWIGRIDPANVNTKYDPRFQGRATITADTSSNTAYLQLSRLTSEDTAVYYCATSGSSPWGQGTTLTVSS
VL: DVVMTQTPLSLPVSLGDQASISCRSSQSLVHSNGYTYSNWYLQKPGQSPKLLIYRVSNRFSGVPDRFSGSGSGTDFTLKISRVEADDLGVYFCSQSTHVPWTFGGGTKLEIKR
notes: Mouse IgG1, kappa, from a hybridoma
As to B1, the binding result was “binds” with collagen type X alpha 1, “no binding” in assay [1], “no binding” in assay [2] and “binds” in assay [3].
